Reference: PMC7094245

Target: T1, IBV N protein amino-terminal region (region 1, NI) (Infectious bronchitis virus (strain …, UniProt P69598 1-133))
T1 sequence: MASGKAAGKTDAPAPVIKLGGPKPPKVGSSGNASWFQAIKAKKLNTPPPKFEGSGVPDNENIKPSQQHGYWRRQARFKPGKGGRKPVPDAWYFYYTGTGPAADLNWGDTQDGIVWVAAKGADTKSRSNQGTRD
Assay: SPR

B1: IBV leader RNA (contains TRS) (ssRNA)
RNA: ACUUAAGAUAGAUAUUAAUAUAUAUCUAUUACACUAGCCUUGCGCUAGAUUUUUAACUGAACAAUACAGACCUAAAAAGUCUGUUUGAUG
Kd: 1430 nM
